This is an account of results in patent US20250092133A1 (Amgen, published 2025).

Assay [1] deals with Hu CDH3 Dom3 mu (aa 328-440), human/mouse chimeric CDH3 on CHO cells (chimeric hu/mu). Put plainly: flow cytometry, transfected CHO cells; crude undiluted periplasmic scFv extract; anti-FLAG M2 + anti-mouse IgG Fcγ-PE; control PBS/2% FCS. How it is done: (§1) Cells transfected with human or murine CDH3, or with the chimeric human/mouse CDH3 molecules (see Example 1) were stained with crude, undiluted periplasmic extract containing scFv binding to human/macaque CDH3. […] As negative control, cells were incubated with PBS/2% FCS instead of the periplasmic extract. The samples were measured by flow cytometry.
In general terms: A flow cytometer gives signals particle by particle.

Assay [2] deals with T1, Hu CDH3 Dom1 mu (aa 108-215), human/mouse chimeric CDH3 on CHO cells (chimeric hu/mu).
T1 chain: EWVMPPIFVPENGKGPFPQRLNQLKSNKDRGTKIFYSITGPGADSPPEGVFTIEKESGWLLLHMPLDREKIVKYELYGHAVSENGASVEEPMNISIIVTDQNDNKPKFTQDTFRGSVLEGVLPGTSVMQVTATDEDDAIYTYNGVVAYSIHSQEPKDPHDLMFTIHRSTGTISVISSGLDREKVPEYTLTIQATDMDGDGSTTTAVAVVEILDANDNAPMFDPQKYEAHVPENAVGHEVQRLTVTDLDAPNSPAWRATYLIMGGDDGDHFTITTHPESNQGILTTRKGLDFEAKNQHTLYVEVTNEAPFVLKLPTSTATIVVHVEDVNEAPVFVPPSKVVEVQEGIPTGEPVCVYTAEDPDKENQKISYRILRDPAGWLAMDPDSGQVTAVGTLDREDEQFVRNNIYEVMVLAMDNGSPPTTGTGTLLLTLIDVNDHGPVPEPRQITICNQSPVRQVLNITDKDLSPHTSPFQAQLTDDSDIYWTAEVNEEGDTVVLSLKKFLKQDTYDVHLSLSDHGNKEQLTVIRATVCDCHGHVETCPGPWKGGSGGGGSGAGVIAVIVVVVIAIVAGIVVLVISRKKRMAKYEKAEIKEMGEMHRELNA
Put plainly: flow cytometry, transfected CHO cells; crude periplasmic scFv extract; anti-FLAG M2 + anti-mouse IgG Fcγ-PE. How it is done:
as §1

A further assay concerns the target T2, murine CDH3 on cells (mouse, UniProt P10287 100-822).
T2 construct: negative control; also called mouse CDH3
T2 sequence: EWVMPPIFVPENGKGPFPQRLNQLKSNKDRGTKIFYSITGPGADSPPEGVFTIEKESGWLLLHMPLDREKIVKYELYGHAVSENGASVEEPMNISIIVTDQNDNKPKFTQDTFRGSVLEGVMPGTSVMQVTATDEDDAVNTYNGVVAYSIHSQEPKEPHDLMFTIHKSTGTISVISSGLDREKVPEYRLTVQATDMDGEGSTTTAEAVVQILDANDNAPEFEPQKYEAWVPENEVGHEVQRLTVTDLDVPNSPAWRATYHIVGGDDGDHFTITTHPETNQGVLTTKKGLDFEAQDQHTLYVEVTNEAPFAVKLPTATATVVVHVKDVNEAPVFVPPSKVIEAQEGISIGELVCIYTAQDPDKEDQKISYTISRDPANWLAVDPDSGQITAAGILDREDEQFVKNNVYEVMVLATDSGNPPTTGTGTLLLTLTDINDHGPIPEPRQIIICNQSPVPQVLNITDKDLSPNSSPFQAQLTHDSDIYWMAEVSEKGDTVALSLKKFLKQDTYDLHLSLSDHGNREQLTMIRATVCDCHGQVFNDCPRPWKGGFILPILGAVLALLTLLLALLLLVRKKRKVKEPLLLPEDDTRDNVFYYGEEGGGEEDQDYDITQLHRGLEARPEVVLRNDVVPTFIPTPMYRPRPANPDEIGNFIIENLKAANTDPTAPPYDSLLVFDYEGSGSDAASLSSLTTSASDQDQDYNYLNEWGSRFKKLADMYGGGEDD
The assay is described as above. How it is done: as §1

The target of assay [3] is T3, Hu CDH3 Dom1B mu (aa 144-179), human/mouse chimeric CDH3 on CHO cells (chimeric hu/mu, UniProt P22223 108-681 (human entry)).
T3 chain: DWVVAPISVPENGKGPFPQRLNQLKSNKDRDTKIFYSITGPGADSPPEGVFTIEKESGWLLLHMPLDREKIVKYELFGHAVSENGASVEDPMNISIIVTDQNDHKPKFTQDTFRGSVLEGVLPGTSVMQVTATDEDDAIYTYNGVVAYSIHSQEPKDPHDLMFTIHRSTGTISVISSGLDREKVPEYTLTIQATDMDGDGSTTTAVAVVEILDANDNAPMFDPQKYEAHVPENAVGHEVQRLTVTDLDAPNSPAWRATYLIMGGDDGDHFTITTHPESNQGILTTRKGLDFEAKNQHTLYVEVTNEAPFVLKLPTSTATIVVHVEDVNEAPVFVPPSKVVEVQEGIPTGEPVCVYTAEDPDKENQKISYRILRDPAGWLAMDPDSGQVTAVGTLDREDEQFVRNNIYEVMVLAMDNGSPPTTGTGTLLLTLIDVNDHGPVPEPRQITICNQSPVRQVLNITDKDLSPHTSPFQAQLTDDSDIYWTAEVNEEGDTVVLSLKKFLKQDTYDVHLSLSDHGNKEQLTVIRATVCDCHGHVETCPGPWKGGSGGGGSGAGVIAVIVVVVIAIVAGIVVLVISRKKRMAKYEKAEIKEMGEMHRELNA
Described as above. How it is done:
as §1

B1: CDH3-10 scFv (scFv)
scFv: EVQLVEESGGGLVKPGGSLKLSCAASGFTFSSYAMSWVRQTPDKRLEWVATISSGGHYTYYPDSVKGRFTISRDNAKNTLYLQMSSLKSEDTAMYYCASYYYGIPFGYWGQGTTVTVSSGGGGSGGGGSGGGGSELVMTQSPSSLSASLGEGVSLTCRASQDIGINLIWLRQEPDGTIKRLIYDTSSLDSGVPKRFSGSRSGSDYSLTISSLESEDFVHYYCLQYGSSPLTFGAGTKLEIK
B1: the binding result in assay [1] was “binds”; in assay [2] it was “no binding”; with murine CDH3 on cells it was “no binding”; in assay [3] it was “no binding”.

B2: CDH3-9 (scFv)
scFv: EVQLVEESGGDLVKPGGSLKLSCAASGFTFSTYGMSWVRQTPDKRLEWVATISSGGHYSYYPDSVKGRFTISRDNAKNTLYLQMSSLKSEDTAMYYCASYYYGSPFAYWGQGTTVTVSSGGGGSGGGGSGGGGSELQMTQSPSSLSASLGERVSLTCRASQDIGSSLNWLQQKPDGTIKRLIYDTSSLDSGVPKRFSGSRSGSDYSLTISSLESEDFGDYYCVQYGSSPLTFGAGTKLEIK
notes: Used as crude periplasmic extract and detected through a FLAG tag; also called CDH3-9 scFv
For B2, the binding result in assay [1] was “binds”; in assay [2], “no binding”; with murine CDH3 on cells it was “no binding”; in assay [3], “no binding”.

B3: CDH3-8 (scFv)
scFv: EVQLVEQSGAEVVKPGASVKITCKASGYAFSSYWMNWVRQRPGKGLEWIGHIYPGDGDTNYNGKFKGKVTLTADKSSNTAYMQLSDLTPEDSAVYFCARDRGSFGAWFAYWGQGTTVTVSSGGGGSGGGGSGGGGSELVMTQTPSSLSASLGDRVTISCRASQDISNYLNWYQQKPDGTVKLLIYYTSRLHSGVPSRFSGSGSGTDYSLTISNLEQEDIATYFCQQGNRNPPTFGGGTKLEIK
notes: Used as crude periplasmic extract and detected through a FLAG tag; also called CDH3-8 scFv
For the molecule B3, the binding result in assay [1] is reported as “binds”; in assay [2], “no binding”; with murine CDH3 on cells, “no binding”; in assay [3] it was “no binding”.
